Data from publication PMC1277818, “Substrate specificity analysis of protein kinase complex Dbf2-Mob1 by peptide library and proteome array screening” (BMC Biochemistry, 2005).

B1: YOL104C: GST fusion yeast protein on proteome chip (protein, UniProt Q12366 1-352, looked up)
Non-disjunction protein 1: MSKDNRLASILLQPVASSSGNCTEFHDSKLHTLQEELNFLPLEGVASNVCPPMFRGHKNYVFVLYCLNQVDLVTNLQDSTKRYYPLQIFKDCQLSSLVQKDFSHYFQLSRQKEGEDRNDSDTTLVNVVNSGVSRHRSQLLKMCIIPRICSFDKSNSKTYKLIQEYVNRFETVLTKFGPEKDFTKVYANWSKLIESFNELILHDLLVKWQQWSELTQPNATVHQNIPNVLRELVIKLTQRYFTFQPSYSCSIDEFTTILLNKNALSLLDVFRKPRKYKLNFGLWLDCQNGILIFTNGIVQMADEITSERVKSFVRPAHLLVLEDHSNDEAVKKLMFFTFSAILQCFTDEILNC
modifications: GST tag
notes: GST fusion yeast protein on proteome chip
B2: YBL106C: GST fusion yeast protein on proteome chip (protein, UniProt P38163 1-1010, looked up)
Lethal(2) giant larvae …: MFKKSRHLKNVSNAIKSARVHDVSNGINSKFFDTKKICTYGINGRITVTTFDYTQSLLAVATTAGEIHVYGQKQIEVVFTLKNRPQIKHMRFIKGIYLIAVDEKSNIIVLSVHSKQILTTVFCPNSITCIETDPSLDWMLIGLESGSILIYDVDRNQMSKLKIENFQKSVFLPKERLSPVISIQWNPRDIGTILISYEHITVIYSFIDYKVKQHFFYQLEPYAPGGDLSTNIEKKRTPKVIQSLYHPNSLHILTVHEDNSLVFWDVNSGKLIHARSIFETHVNFPNPALKDCSFTETPAIFKVSWLCQRNPEYTSLLIATKATENPCLPQEITMIDLGGTPMYSVTSFDAMSKYYAKPVQQKLFSLIGKAPLINFLPLPKASPYFGGCHDTNLILLLLEDGELETLIYPAGSFSSKASIFPRSLAWVRPTVTTCIAQSVQKNLWLGMMTIAQSESFLKGGIPATRNIRRHETRSALLTGHSNGSVRIWDASHSEVTDNAVFEVNTAKVLNRATNLAIKNISFASETLELAVSSEVGDVILFKFETNKFYGQLPKSDALQLKFSRFSLDDSKTILVDVSDRGPTNVKQGFIPSTVIHAKKGAVSAIMNSNIGFVAVGFIEGTLIILDRRGPAIIFNENIRVISKAGSSYVSTVHFCVMEYGDDGFSSILMLCGTDIGELMTFKILPATNGRFEVKFTDATKTNNQGKILGINSFAKDTGYSCSATISKMQGLSKGIAIPGFVTISGANDIRLVSPGKSKDTHALFKYPIATSGLSFIPIIDGKGERKLSTIMIVLLINGDIKVLTVPELKEVKNLRCPVPLSAQYVENSSILENGDIVIRTGKFQASLISVLNESATGTNHTADISQHTPIDTLYNPDLKIGYRPQVNSLQWARGTIYCTPYQLDELLGGIERPESKYEESAIARGCISSSSSNAARKLPPGTEDHRYARPVRSSGRSNGYGVLKSVSRAIETRLDTVETTINDYATTMGQTMNDAMEETGRDMMKSAVGF
modifications: GST tag
notes: as for B1
B3: YKL146W: GST fusion yeast protein on proteome chip (protein, UniProt P36062 1-692, looked up)
Vacuolar amino acid …: MNGKEVSSGSGRTQSNNNKKNNNGGSTGISHASGSPLTDGNGGNSNGNSRSRSRSRKSSGTTGGLLKKPPLLVNNEAVHASVPDASHTSCNNGTLEVSINNPEPHVVDAVARHLIRNPSNSLQLQGGDITRDLYKWTNDHPSSPSQYQYPSQPALSTSIPSQAPSFSNRKRSMSFSAASIASSSHLNNNSEANGNPLAAIGLAPAPMTHEEIRAPGGFRRSFIIQKRRKHNVDAPIPNFFTRNFIEFLTLYGHFAGEDLSEEEEEEEETEEEPEEEALETESTQLVSREHGRHPHKSSTVKAVLLLLKSFVGTGVLFLPKAFHNGGWGFSALCLLSCALISYGCFVSLITTKDKVGVDGYGDMGRILYGPKMKFAILSSIALSQIGFSAAYTVFTATNLQVFSENFFHLKPGSISLATYIFAQVLIFVPLSLTRNIAKLSGTALIADLFILLGLVYVYVYSIYYIAVNGVASDTMLMFNKADWSLFIGTAIFTFEGIGLLIPIQESMKHPKHFRPSLSAVMCIVAVIFISCGLLCYAAFGSDVKTVVLLNFPQDTSYTLTVQLLYALAILLSTPLQLFPAIRILENWTFPSNASGKYNPKVKWLKNYFRCAIVVLTSILAWVGANDLDKFVSLVGSFACIPLIYIYPPLLHYKASILSGTSRARLLLDLIVIVFGVAVMAYTSWQTIKMWSQ
modifications: GST tag
notes: as for B1
B4: YPL211W: GST fusion yeast protein on proteome chip (protein, UniProt Q08962 1-181, looked up)
60S ribosome subunit …: MRQLTEEETKVVFEKLAGYIGRNISFLVDNKELPHVFRLQKDRVYYVPDHVAKLATSVARPNLMSLGICLGKFTKTGKFRLHITSLTVLAKHAKYKIWIKPNGEMPFLYGNHVLKAHVGKMSDDIPEHAGVIVFAMNDVPLGFGVSAKSTSESRNMQPTGIVAFRQADIGEYLRDEDTLFT
modifications: GST tag
notes: as for B1
B5: YDR299W: GST fusion yeast protein on proteome chip (protein, UniProt Q06631 1-534, looked up)
Protein BFR2: MEKSLADQISDIAIKPVNKDFDIEDEENASLFQHNEKNGESDLSDYGNSNTEETKKAHYLEVEKSKLRAEKGLELNDPKYTGVKGSRQALYEEVSENEDEEEEEEEEEEKEEDALSFRTDSEDEEVEIDEEESDADGGETEEAQQKRHALSKLIQQETKQAINKLSQSVQRDASKGYSILQQTKLFDNIIDLRIKLQKAVIAANKLPLTTESWEEAKMDDSEETKRLLKENEKLFNNLFNRLINFRIKFQLGDHITQNEEVAKHKLSKKRSLKELYQETNSLDSELKEYRTAVLNKWSTKVSSASGNAALSSNKFKAINLPADVQVENQLSDMSRLMKRTKLNRRNITPLYFQKDCANGRLPELISPVVKDSVDDNENSDDGLDIPKNYDPRRKDNNAIDITENPYVFDDEDFYRVLLNDLIDKKISNAHNSESAAITITSTNARSNNKLKKNIDTKASKGRKLNYSVQDPIANYEAPITSGYKWSDDQIDEFFAGLLGQRVNFNENEDEEQHARIENDEELEAVKNDDIQIFG
modifications: GST tag
notes: as for B1
B6: YNL125C: GST fusion yeast protein on proteome chip (protein, UniProt P53918 1-673, looked up)
Uncharacterized transporter …: MSTHSNDYFSASSGMVSETSSEVSSINSSQPVSFSKASIAAPVPCSDLHSTKSNDASRKLSISRTLTNRLNDIKKAVDDDNLQTEENSADVNKILESRFDVADAIRLQHNESVQSKLNIPVTHTTTAGASLSAPSSSAFSASSIQNDTTEHKASMDSKLMRNRLYPASTKHSGKDLEAQGITEFEPDEPTVKKVFTNKSTGQLELPPDGGYGWVVTFCVFLTMFSTWGCNASFGVDLAYYLNHDTYPGASKYDYALIAGLTVFLGQLLSPLVMALMRIIGLRTTMLFGDAVMLAAYLLASFTTKLWQLYVTQGFMVGCSISLIFVPATTVLPGWFLKKRAVAMGVSLLGTGAGGVVYGLATNKMLSDFGNTRWCLRIIGISCSISVLVAIALLKERNPTPAIGLKSPRAMFEQLKAMFSLKVITKPFVVLIALWFMFALFAYNMMVFTLSSYAISKGLSSHDASTLTAILNGSQSIGRPLMGLAGDKFGRANVTIVLTTLLTIYMFAFWIPAHTFVQLIFFSILVGSCVGVANVMNTVLIADMVKPEEFLPAWAFVNYCGAPFLLVCEVIAQALTVEKDKSNPYLHAQIFCGCCFIAALILISILREYSIRMKLTERQAMTNEKLKEWKASEYDTDSADEDWGKLKERKTKYDLLLGPGIKKYFLRMVYPMKV
modifications: GST fusion
notes: as for B1
B7: YIL010W: GST fusion yeast protein on proteome chip (protein, UniProt P40553 1-215, looked up)
Peroxiredoxin DOT5: MGEALRRSTRIAISKRMLEEEESKLAPISTPEVPKKKIKTGPKHNANQAVVQEANRSSDVNELEIGDPIPDLSLLNEDNDSISLKKITENNRVVVFFVYPRASTPGCTRQACGFRDNYQELKKYAAVFGLSADSVTSQKKFQSKQNLPYHLLSDPKREFIGLLGAKKTPLSGSIRSHFIFVDGKLKFKRVKISPEVSVNDAKKEVLEVAEKFKEE
modifications: GST tag
notes: as for B1
B8: YCR105W: GST fusion yeast protein on proteome chip (protein, UniProt P25377 1-361, looked up)
NADP-dependent alcohol …: MLYPEKFQGIGISNAKDWKHPKLVSFDPKPFGDHDVDVEIEACGICGSDFHIAVGNWGPVPENQILGHEIIGRVVKVGSKCHTGVKIGDRVGVGAQALACFECERCKSDNEQYCTNDHVLTMWTPYKDGYISQGGFASHVRLHEHFAIQIPENIPSPLAAPLLCGGITVFSPLLRNGCGPGKRVGIVGIGGIGHMGILLAKAMGAEVYAFSRGHSKREDSMKLGADHYIAMLEDKGWTEQYSNALDLLVVCSSSLSKVNFDSIVKIMKIGGSIVSIAAPEVNEKLVLKPLGLMGVSISSSAIGSRKEIEQLLKLVSEKNVKIWVEKLPISEEGVSHAFTRMESGDVKYRFTLVDYDKKFHK
modifications: GST fusion
notes: as for B1

Biological target: T1, FHHDbf2-H6Mob1TM9 (Saccharomyces cerevisiae, UniProt P22204+P40484)
T1 construct: made in house; host or cells: Hi5 insect cells (baculovirus)
T1 sequence (P22204 1-572): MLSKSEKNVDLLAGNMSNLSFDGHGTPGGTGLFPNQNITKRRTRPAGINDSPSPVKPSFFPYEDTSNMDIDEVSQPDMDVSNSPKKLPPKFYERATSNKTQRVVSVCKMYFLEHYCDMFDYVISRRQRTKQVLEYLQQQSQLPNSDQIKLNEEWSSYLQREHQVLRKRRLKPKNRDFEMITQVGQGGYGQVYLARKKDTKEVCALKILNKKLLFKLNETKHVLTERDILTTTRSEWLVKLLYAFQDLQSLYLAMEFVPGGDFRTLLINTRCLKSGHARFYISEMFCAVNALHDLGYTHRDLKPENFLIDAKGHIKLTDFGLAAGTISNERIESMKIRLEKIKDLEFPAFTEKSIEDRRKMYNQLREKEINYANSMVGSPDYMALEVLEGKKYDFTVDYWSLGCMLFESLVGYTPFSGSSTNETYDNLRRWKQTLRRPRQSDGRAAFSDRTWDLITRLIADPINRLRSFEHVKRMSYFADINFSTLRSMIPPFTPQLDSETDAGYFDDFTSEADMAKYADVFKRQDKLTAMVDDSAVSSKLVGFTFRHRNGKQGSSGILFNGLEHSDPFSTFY
T1 sequence (P40484 1-314 partner): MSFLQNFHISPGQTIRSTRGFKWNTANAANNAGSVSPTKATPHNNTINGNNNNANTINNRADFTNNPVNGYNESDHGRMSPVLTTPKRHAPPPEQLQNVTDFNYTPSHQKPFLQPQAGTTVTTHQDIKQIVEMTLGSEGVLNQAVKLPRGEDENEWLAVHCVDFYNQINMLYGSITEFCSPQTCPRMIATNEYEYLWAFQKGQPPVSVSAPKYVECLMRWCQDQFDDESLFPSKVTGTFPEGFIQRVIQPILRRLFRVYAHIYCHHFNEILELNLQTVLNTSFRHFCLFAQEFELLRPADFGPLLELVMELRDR
Assay: Yeast proteome chip assay
Type: biochemical
Conditions: Table 3; GST fusion proteins on proteome chip, [γ-33P]ATP, chips in duplicate, computer analysis
Procedure: The relatively low sequence complexity of the Dbf2 phosphorylation motif diminished the power of using genome-wide bioinformatics screens to identify putative substrates. Accordingly, we carried out a proteome array screen to identify putative yeast substrates. […] After taking into account the proteins phosphorylated in the negative controls, 67 proteins were determined to be putative Dbf2-Mob1 substrates (Table 3).
Yeast proteome microarrays were prepared as previously described. Overexpressed GST-tagged yeast proteins were purified from ~4,400 yeast strains and spotted on slides. To determine the optimal amount of kinase to use for probing proteome chips, we performed trial assays as described (J. Ptacek et al., submitted). […] The full proteome array was probed with 4 μl ^FHHDbf2-^H6Mob1^TM9 in 200 μl of DKB supplemented with [γ-^33P]ATP. As a control, ^FHHDbf2(N305A)-^H6Mob1^TM9 was used to probe the proteome array. […] To control for autophosphorylated proteins, the proteome array was probed with 200 μl of DKB supplemented with [γ-^33P]ATP. Proteome chips were assayed in duplicate in each case. Data analysis was performed as described (J. Ptacek et al., submitted). Briefly, signals were analyzed by a computer algorithm designed to normalize background and identify signals as positive if 3 of 4 spots (each protein is spotted twice on each slide and each kinase or control was tested on 2 slides) were 2 standard deviations above background and the fourth spot was 1.5 standard deviations above background.

**Q.** With B1 as the molecule, how does the “Slide Signal (after normalization)” value read?
**A.** 0.3611

**Q.** B2 was tested. Which “Slide Signal (after normalization)” value did it give?
**A.** 0.5988

**Q.** With B3 as the molecule, how does the “Slide Signal (after normalization)” value read?
**A.** 0.3592

**Q.** Which “Slide Signal (after normalization)” value does the source give for B4 here?
**A.** 0.4521

**Q.** For B5, which “Slide Signal (after normalization)” value is on record?
**A.** 0.47

**Q.** For B6, which “Slide Signal (after normalization)” value is on record?
**A.** 0.5694

**Q.** B7 was tested. Which “Slide Signal (after normalization)” value did it give?
**A.** 0.2606

**Q.** How did the “Slide Signal (after normalization)” value turn out when B8 was run?
**A.** 0.6146
